From the DeepSol protein solubility set

Assay: soluble on expression in E. coli; label from the status in PepcDB or PDB records

| Sequence | soluble on expression in E. coli |
| --- | --- |
| MGHHHHHHSHMKATSVIDDFLGGYFCILGLLQPHLERVAIDALQLCCLLLPPPNRRKLQLLMRMISRMSQNVDMPKLHDAMGTRSLMIHTFSRCVLCCAEEVDLDELLAGRLVSFLMDHHQEILQVPSYLQTAVEKHLDYLKKGHIENPGDGLFAPLPTYSYCKQISAQEFDEQKVSTSQAAIAELLENIIKNRSLPLKEKRKKLKQFQKEYPLIYQKRFPTTESEAALFGDKPTIKQPMLILRKPKFRSLR | not soluble |
| MYKNNFENYMNLDIYKDIEEIRAALEHLGAKKILLQLPDGLKPEVYHYFNYLSANYNVVISSSPVYGACDIGPSSIYDKVDAIVQIGHSPMPNVKYPKPTIFVEHHYNARISNIDTSLLEGKYDRIGLLFSVQYKEVADEVRKIFENKGFTVIIGKKDGRMAYDGQVLGCNFSSVHSISYDVDAYVLVSTGQFHGIGAQLSTEREVFVLDLNDYKLHSMKDEADKFIRKRYAQIFRAKEARKICIISDTRIGQRRERLARIILRQVQQMGLEGILAVTDNISNQDLENMRCDAVVYTGCPRVPIDDQQKFTMPLLTPAEFEMGFVKNSNRYVLDEIVSVDDPADKLEHHHHHH | not soluble |
| MFSVNNTHSSVSCSPSINSNSTSNEHYLRILTEWEKNSSPGEERGIAFNRLSQCFQNQEAVLNLSDLNLTSLPELPKHISALIVENNKLTSLPKLPAFLKELNADNNRLSVIPELPESLTTLSVRSNQLENLPVLPNHLTSLFVENNRLYNLPALPEKLKFLHVYYNRLTTLPDLPDKLEILCAQRNNLVTFPQFSDRNNIRQKEYYFHFNQITTLPESFSQLDSSYRINISGNPLSTRVLQSLQRLTSSPDYHGPQIYFSMSDGQQNTLHRPLADAVTAWFPENKQSDVSQIWHAFEHEEHANTFSAFLDRLSDTVSARNTSGFREQVAAWLEKLSASAELRQQSFAVAADATESCEDRVALTWNNLRKTLLVHQASEGLFDNDTGALLSLGREMFRLEILEDIARDKVRTLHFVDEIEVYLAFQTMLAEKLQLSTAVKEMRFYGVSGVTANDLRTAEAMVRSREENEFTDWFSLWGPWHAVLKRTEADRWAQAEEQKYEMLENEYSQRVADRLKASGLSGDADAEREAGAQVMRETEQQIYRQLTDEVLALRLSENGSRLHHS | not soluble |
| MAEETPPIVELAEWFQTPPGQYVLAWEQAQFDEAVADIFGYYAWQVGLAEPNLLRANRMPFKAWVGAGVPPPELAQGWQACVAAAPEALPFESQSVDLLVLPHAFECAEAPHLVLREVERVLVPEGRVVISGFNPWSLWGARNLMPGMEAWLPLPLSAQVALPRLKDWFKLLSFEVERGRFGCYAPACRTDKWLRRWRFMERYGQRWWGLGGAVYVVTATKKVAAMRLIGPAWKTRRKRAQAASVVVNRQADDPGRLEHHHHHH | not soluble |
| MAKRIQFSTVGGPEVLEYVDFEPEAPGPQAVVVRNKAIGLNFIDTYYRSGLYPAPFLPSGLGAEGAGVVEAVGDEVTRFKVGDRVAYGTGPLGAYSEVHVLPEANLVKLADSVSFEQAAALMLKGLTVQYLLRQTYQVKPGEIILFHAAAGGVGSLACQWAKALGAKLIGTVSSPEKAAHAKALGAWETIDYSHEDVAKRVLELTDGKKCPVVYDGVGQDTWLTSLDSVAPRGLVVSFGNASGPVSGVNLGILAQKDSVYVTRPTLGSYANNAQNLQTMADELFDMLASGKLKVDGIEQYALKDAAKAQIELSARRTTGSTILIP | soluble |
| MSLSDAAAVTVVEQTEKRHKLIGYWHNFVNGAGCPIRLADMADAWDVIDIAFAENDRNSDGTVHFNLYSGDIYSDCPALDPTQFKQDMAALQAKGKKFVLSLGGAEGTITLNTDQDEANFVSSLTGLIAEWGFDGLDVDLESGSNLVHGSQIQARLGRALLQIEQNMGGDMYLTMAPEHPYVQGGYVAYSGIWGAYIPVINDTRSTLDLLHVQLYNNGGLPNPYLPSSAPEGSVDMMVAQSKMLIEGFELADGTQFAPLRDDQVAIGLPSGPSSANSGQAPTQNILNALDCLTKGTSCGTVKPAFNYPNYAGVMTWSINWDQHDGFNFSKPVGDKLTQMNAEGHHHHHH | soluble |
| MGSDKIHHHHHHMEHNRVLRLEHGINFRELGGYENTAGQTIKWQKLLRCGGMSLLTNRDLTYLDNYGLRYDIDLRQANEAEMSPDRYPKNTKYINTSVYPFTDNRRFDRRLKRLIKRMVVDDSFNAQTYAQMITDSHAVKVWQNLFATLLANDQPDQSVLFHCAAGKDRTGVAGALIMTALDVPRETIMQDYLLTNAVFMAADSMDTATIITKANAGDLASQFNVAMAVEADNMKMVFRVFDDLYGNGIGYLREVLGLSVADINNLRQLYLND | not soluble |
| GPGSMDTQGIRAVSEYVARGHGSGIVWAWCAASPAAFASMINSPSRTRQAAHERSVHYLSSYEQKSGCVCTVRVDRMGITLNEFHHTVPLWLVTWHTQLLYRLFGPVGVAVHVTDLDSLVLNSLLSAWEGTPVQVTALTSRHRLSTCVSAHRRSTGRVFSVLAGLQDLVLLPSPSVHGSLVVAEYAPLLRRVTASKCCVEYLKPLSQLQHLQEVQLSQTLIRDAELRILAQLPLLTTLDVSSCPHLSSLEPLACAASLRILRASSCERLMLVAQLGTLATLRIVDLSGNVFRPTEFASFITQPTLHLQAGYFAHMRWPRDDPPSTQVLGSVKHLHLSYGTVPNIRWLCGAHSLEQLCLDHTNVTAVDMAVLVQHTPLLSVLSLSYCEHLHTNLDFTRSLHFLAMLTITRSSLPSPFLELVELQQSLSLTLS | not soluble |
| MGSDKIHHHHHHMSAVIGYRHGKAGERGIILCARQFQNSLNESSLEEIKRAIESYPFLQDYYEIGDKYIKSKDGRIVYVFAGLDRNIASIKSMGRVFLCWVDEAEPVTETAWQTLIPTLREEGNDWNAELWVTWNPCRENAPVEKRFRNVNNPHIKGAEITWRDNPQFPEKLNRDRKADLEQRPEHYNHIWEGEYLQTVEGAYYQKALLEASREGRITTVPRDPLMQIRIFWDIGGTGAKADATALWVAQFVGREIRVLDYYEAQGQPLSEHVGWVFQRGYDKALMVLPHDGATKDRVYNVSFESALQQAGFQTKVIPNQGVGAVKMRIEAVRRLFPAIWFNRETTHAGRKALAWYHEKRDEQRNIGLGAEHDWASHGADAFGLMCVAYEQPNMRPKKNTYRSSHHSQTSWMAF | not soluble |
| MSLRLSLLSSTSKYKVTVAEVQRRLSPPECLNASLLGGVLRRAKSKNGGRSLREKLDKIGLNLPAGRRKAAHVTLLTSLVEGEAVHLARDFAYVCEAEFPSKPVAEYLTRPHLGGRNEMAARKNMLLAAQQLCKEFTELLSQDRTPHGTSRLAPVLETNIQNCLSHFSLITHGFGSQAICAAVSALQNYIKEALIVIDKSYMNPGDQSPADSNKTLEKMEKHREGHHHHHH | not soluble |
| MAGDPMKSPCILLIIVCTLSLTGCASTKQADSDSSLGKAQQTLDSLYQHYSAKDSYLLRENYPFNEQYKVTYLASENQTNMPNQFSYLWPYSGTFSAVNSLLEATHDKKYQQLLEKQVLPGLEEYFDTERTPIAYSSYIRTAPTSDRFYDDNIWVGIDFIDIYQITKEKKYLDKAQLIWNFIESGTDSLLGDGIYWCEQKKESKNTCSNAPGSVFALKLFKATNDSLYFKRGKELYKWTQKNLQDSTDYLYFDNIRLDGKIGKAKFAYNSGQMMQSAALLYQLTKNPDYLKDAQSIAKECYNYFFTDFTTDTGESLKMLKQGNIWFTAVMLRGFIELYQLDQNKTFIDAFNQCLSYAWDNARDENGLFSTDLTGNNNNEKKWLLTQAAMVEMYSRLATIQLEHHHHHH | soluble |
| MDQSSHHHHHHMDQKQIEEIVRSVMASMGQAAPAPSEAKCATTNCAAPVTSESCALDLGSAEAKAWIGVENPHRADVLTELRRSTVARVCTGRAGPRPRTQALLRFLADHSRSKDTVLKEVPEEWVKAQGLLEVRSEISDKNLYLTRPDMGRRLCAEAVEALKAQCVANPDVQVVISDGLSTDAITVNYEEILPPLMAGLKQAGLKVGTPFFVRYGRVKIEDQIGEILGAKVVILLVGERPGLGQSESLSCYAVYSPRMATTVEADRTCISNIHQGGTPPVEAAAVIVDLAKRMLEQKASGINMTR | soluble |
| MSLRRIGITQRLLETREYIETREALDVRWGELFYHLSWGMIPLSYAVPLEVYIKEFALEGVILSGGNDLNDFVSSPLNKKRDAYEKEILRYAKQYAFPLLGVCRGAQMIAYEGGSLLEFCEGHVGRHEIFWEEGEGEIIGSEHQLAIKELGAGLIPLARSCEGLVEAFRGEEAPLFGMMWHPERQDKRSAGTLKMVELFSQALQKREGHHHHHH | soluble |
| HHMAQANFGVVGMAVMGKNLALNVESRGYTVAIYNRTTSKTEEVFKEHQDKNLVFTKTLEEFVGSLEKPRRIMLMVQAGAATDATIKSLLPLLDIGDILIDGGNTHFPDTMRRNAELADSGINFIGTGVSGGEKGALLGPSMMPGGQKEAYDLVAPIFEQIAAKAPQDGKPCVAYMGANGAGHYVKMVHNGIEYGDMQLIAESYDLLKRILGLSNAEIQAIFEEWNEGELDSYLIEITKEVLKRKDDEGEGYIVDKILDKAGNKGTGKWTSESALDLGVPLPLITESVFARYISTYKDERVKASKVLSGPALDFSGDKKEVIEKIRKALYFSKIMSYAQGFAQLRKASEEFDWDLPYGTIAQIWRAGCIIRAEFLQNITDAFDKDSELENLLLDDYFVDITKRYQEAVRDVVSLAVQAGTPIPTFTSAISYYDSYRSENLPANLIQAQRDYFGAHTYERTDKAGIFHYDWYTED | soluble |
| WLSPEIEALSHGTRLNNIDMYPALQRLLPWPEATNFEEFAPSHLSVPSGNQHRLDYSSGRPVIRVKLQECFGLEESPQLCGIPVQFHLLSPAGRPLAVTDDLRSFWSGPYSQVRAEMRGRYPKHPWPEDPWTAPATARTKNRM | not soluble |
| MSLTPRFIDLHTHTTASDGSDSPADLVRKATEAGLAAVAVTDHDTVAGLDEAVAMGHETGIEVVRGCELGVRSEYGEIHILGLWLPEKPETLLDAMKELRRHRNERNERIVDNLRTLGMDITYEEVRALSGGVSVGRPHIALALLRHGYIRTPQEAFDRFIGPGAPAYAPKKVFSPAEGVRLLASCGATVAIAHPMLLRCPEEWLDDTVADLKVAGLDAIEAYHSEHSHKDERRCVDIADRHGLVLTGGSDYHGKAKPAISLGRGRGGLRVTTHVLDNLKRHRRERGLEGHHHHHH | soluble |
| MSANFTDKNGRQSKGVLLLRTLAMPSDTNANGDIFGGWIMSQMDMGGAILAKEIAHGRVVTVAVESMNFIKPISVGDVVCCYGQCLKVGRSSIKIKVEVWVKKVASEPIGERYCVTDAVFTFVAVDNNGRSRTIPRENNQELEKALALISEQPL | soluble |
| MNVLKQQITASIAKDIAFRLGAELNDEEADIFADGYNAAMLQNCNVVTSGKPLTITLPDTSSKAFWSSTGKNETFHPETYKRQVKEAIERSCVIAGIGVEVK | not soluble |
| MGSDKIHHHHHHMQQNDKKLFVLDTNVLLHEPLAIYSFKEHDVIIPMTVLEELDSIKDRKRDVSRDARVAIRALEDILGGPTTPEQILKGVALPTREEHSQVSGHLSIFPDHQVEFIIGSLPGDNNDNRIINTALHLQKIHFPRTVVLVTKDINMRLKAKGAGIERVEDYRSDQLIDDVRFLAKGFYQFSGDFWQNVDKVSTERRGLHTVHQVPLEHLGNENFYLNQYLIDDSSDFCGRVVSKTDKHLEMIDRGRDRLLHHEAWGINPKNIYQGMALDALLDPDIELIILTGPAGCGKTLLAMAAALELVVERKLYDKIIVTRNTPEIAESIGFLPGSEEEKMTPWLAAITDTLEVLHKNDVNPAGSVNYIMEKANIQFKSINFMRGRSIQNSVVILDECQNLTASQIKTMITRMGEGTKLICSGNLAQIDSTYLTAVTSGLTYMVERFKDFEGSANIYLNGVVRSRLAEFAEEHL | not soluble |
| MNKYEEVLQELIKASGIEGAAIVSLDGLPIASVLPANAEEDKVAAMSAAILSLGERVVEELGKGTMEQITIKGDKGYVVITEIGQDAVLTTLAGQDSKLGLIYMEIKKAQQKLKELI | not soluble |
